B1: Cytoplasmic polyadenylation element-binding protein 2, residues 513 to 575; numbered along this chain, Q7Z5Q1 (parent)
chain: KRVEVKPYVLDDQMCDECQGARCGGKFAPFFCANVTCLQYYCEFCWANIHSRAGREFHKPLVK

Variants of: B1
Test: abundance fitness (aPCA) (normalised: wild type 0, dead -1); higher = more abundant; growth selection in yeast, the domain comes from the species named
Conditions: Homo sapiens

Abundance fitness of substitutions, site by site:
G54: I -0.176; E -0.065; H -0.123; S -0.009; P -0.004; N 0.108; M -0.299; L -0.146; T -0.112; V -0.32; K -0.195; W -0.259
A53: V -0.006; H 0.053; C -0.091; N 0.152; P 0.157; K 0.142; I -0.079; M -0.045; S 0.053; Q 0.106; E 0.082; W -0.287; D 0.02; L -0.092; F -0.045; T 0.082; R 0.055; Y -0.098
F57: G 0.166; C 0.098; S 0.129; L 0.091; I -0.109; A 0.125; W 0.026; M 0.144; E 0.117; H 0.027; T 0.121; N 0.134; P -0.029; Y -0.032; D 0.054; V 0.065; R 0.097
K63: E 0.014; A 0.125; H -0.014; M -0.111; G 0.1; D -0.641
E56: P -0.31; C -0.195; R -0.01; K 0.035; S -0.128; Y -0.271; H -0.158; A -0.357; Q -0.214; F -0.235; D -0.035; L -0.253; N -0.111; W -0.573; M -0.154; V -0.373
R55: D -0.08; P -0.463; A -0.03; L 0.04; Q -0.058; C -0.194; T -0.165; Y 0.211; N -0.019; E -0.142; G -0.176; H -0.131; F 0.035; I 0.104; M 0.031; S -0.041; V -0.1
P60: R -0.052; G -0.341; C -0.154; E -0.412; F -0.937; H -0.226; N -0.057; L -0.517; V -0.331; M -0.157; T -0.558; W -0.817; A -0.051; Q 0.051
V62: D -0.164; A -0.193; M 0.081; R 0.105; I -0.103; S -0.081
L61: A 0.092; Y -0.197; I 0.071; T 0.076; H -0.048; G 0.076; E 0.146; C 0.091; S 0.12; R -0.014; N 0.033; W -0.137; V 0.091; M 0.012; K 0.065; Q 0.116; D 0.04; F -0.11
H58: I -0.679; W -1.01; Q -0.663; C -0.227; R -0.763; M -0.653; K -0.384; S -0.523; L -0.707; V -0.704; A -0.743; D -0.704; T -0.611; Y -0.822; P -0.51; E -0.442; F -0.934
K59: G -0.255; Y -0.351; A -0.118; L -0.219; I -0.3; D -0.132; P -0.247; F -0.541; R 0.024; T -0.041; N -0.248; C -0.199; W -0.46; S 0.021; E 0.168; H -0.226; Q -0.076; V -0.2
R52: M 0.064; Y -0.088; S 0.085; V 0.102; W -0.225; L -0.017; N 0.004; Q 0.119
